# Data reported in US20180110875A1 (SUZHOU SUNCADIA BIOPHARMACEUTICALS, published 2018).
# Positions count from the first letter of the chain named.
# B1: Ab-10 humanized antibody (antibody, human IgG2, kappa)
# heavy: QVQLVESGGGVVQPGRSLRLSCAASGFSLSNYGVHWVRQAPGKGLEWLAVIWSGGSTNYAAAFVSRLTISKDNSKNTVYLQMNSLRAEDTAVYYCARNHDNPYNYAMDYWGQGTTVTVSSASTKGPSVFPLAPCSRSTSESTAALGCLVKDYFPEPVTVSWNSGALTSGVHTFPAVLQSSGLYSLSSVVTVPSSNFGTQTYTCNVDHKPSNTKVDKTVERKCCVECPPCPAPPVAGPSVFLFPPKPKDTLMISRTPEVTCVVVDVSHEDPEVQFNWYVDGVEVHNAKTKPREEQFNSTFRVVSVLTVVHQDWLNGKEYKCKVSNKGLPAPIEKTISKTKGQPREPQVYTLPPSREEMTKNQVSLTCLVKGFYPSDIAVEWESNGQPENNYKTTPPMLDSDGSFFLYSKLTVDKSRWQQGNVFSCSVMHEALHNHYTQKSLSLSPGK
# light: DIVLTQSPDSLAVSLGERATINCRADKSVSTSTYNYLHWYQQKPGQPPKLLIYLASNLASGVPDRFSGSGSGTDFTLTISSLQAEDVAVYYCQHSRDLPPTFGQGTKLEIKRTVAAPSVFIFPPSDEQLKSGTASVVCLLNNFYPREAKVQWKVDNALQSGNSQESVTEQDSKDSTYSLSSTLTLSKADYEKHKVYACEVTHQGLSSPVTKSFNRGEC
# notes: human constant regions, kappa light chain
# B2: Ab-11 humanized antibody (antibody, human IgG2, kappa, V domains shown)
# VH: QVQLVESGGGVVQPGRSLRLSCAASGFTLPNYGVHWVRQAPGKGLEWLAVIWSGGSTNYAAAFVSRLTISKDNSKNTVYLQMNSLRAEDTAVYYCARNHDNPYNYAMDYWGQGTTVTVSS
# VL: DIVLTQSPDSLAVSLGERATINCRANKSVSTSTYNYLHWYQQKPGQPPKLLIYLASNLASGVPDRFSGSGSGTDFTLTISSLQAEDVAVYYCQHSRDLPPTFGQGTKLEIKR
# notes: as for B1
# B3: Anti-c-Met antibody Ab-10-toxin MC-MMAF conjugate (antibody, human IgG2, kappa, V domains shown)
# VH: B2 VH with T28S, P30S
# VL: B2 VL with N26D
# modifications: MC-MMAF coupled through a propyl mercaptan linker put on the antibody; average y=1.7 per antibody; chain and residues not stated
# B4: Anti-c-Met antibody Ab-10-toxin conjugate (Example 24) (antibody, V domains shown)
# VH: B2 VH with T28S, P30S
# VL: B2 VL with N26D
# modifications: toxin intermediate 12h (maleimidocaproyl derivative of toxin 12g) coupled through a propyl mercaptan linker put on the antibody; average y=1.6 per antibody; chain and residues not stated
# B5: Ab-9 humanized antibody (antibody, human IgG2, kappa)
# heavy: QVTLKESGPVLVKPTETLTLTCTVSGFSLPNYGVHWVRQPPGKALEWLAVIWSGGSTNYAAAFVSRLRISKDTSKSQVVFTMNNMDPVDTATYYCARNHDNPYNYAMDYWGQGTTVTVSSASTKGPSVFPLAPCSRSTSESTAALGCLVKDYFPEPVTVSWNSGALTSGVHTFPAVLQSSGLYSLSSVVTVPSSNFGTQTYTCNVDHKPSNTKVDKTVERKCCVECPPCPAPPVAGPSVFLFPPKPKDTLMISRTPEVTCVVVDVSHEDPEVQFNWYVDGVEVHNAKTKPREEQFNSTFRVVSVLTVVHQDWLNGKEYKCKVSNKGLPAPIEKTISKTKGQPREPQVYTLPPSREEMTKNQVSLTCLVKGFYPSDIAVEWESNGQPENNYKTTPPMLDSDGSFFLYSKLTVDKSRWQQGNVFSCSVMHEALHNHYTQKSLSLSPGK
# light: DIVLTQSPASLAVSPGQRATITCRANKSVSTSTYNYLHWYQQKPGQPPKLLIYLASNLASGVPARFSGSGSGTDFTLTINPVEANDTANYYCQHSRDLPPTFGQGTKLEIKRTVAAPSVFIFPPSDEQLKSGTASVVCLLNNFYPREAKVQWKVDNALQSGNSQESVTEQDSKDSTYSLSSTLTLSKADYEKHKVYACEVTHQGLSSPVTKSFNRGEC
# notes: as for B1
# Key:
# [1] = target: T1, Human c-Met extracellular region (ECD) and murine Fc region fusion protein (Human c-Met ECD-mFc) (human, UniProt P08581 25-932); assay: blocking ELISA of HGF/c-Met binding: c-Met ECD-mFc coated, antibody titrated, human HGF 20 ng/ml
# T1 construct: extracellular domain; Expressed in 293F cells; not shown: murine Fc region
# T1 sequence (P08581 25-932): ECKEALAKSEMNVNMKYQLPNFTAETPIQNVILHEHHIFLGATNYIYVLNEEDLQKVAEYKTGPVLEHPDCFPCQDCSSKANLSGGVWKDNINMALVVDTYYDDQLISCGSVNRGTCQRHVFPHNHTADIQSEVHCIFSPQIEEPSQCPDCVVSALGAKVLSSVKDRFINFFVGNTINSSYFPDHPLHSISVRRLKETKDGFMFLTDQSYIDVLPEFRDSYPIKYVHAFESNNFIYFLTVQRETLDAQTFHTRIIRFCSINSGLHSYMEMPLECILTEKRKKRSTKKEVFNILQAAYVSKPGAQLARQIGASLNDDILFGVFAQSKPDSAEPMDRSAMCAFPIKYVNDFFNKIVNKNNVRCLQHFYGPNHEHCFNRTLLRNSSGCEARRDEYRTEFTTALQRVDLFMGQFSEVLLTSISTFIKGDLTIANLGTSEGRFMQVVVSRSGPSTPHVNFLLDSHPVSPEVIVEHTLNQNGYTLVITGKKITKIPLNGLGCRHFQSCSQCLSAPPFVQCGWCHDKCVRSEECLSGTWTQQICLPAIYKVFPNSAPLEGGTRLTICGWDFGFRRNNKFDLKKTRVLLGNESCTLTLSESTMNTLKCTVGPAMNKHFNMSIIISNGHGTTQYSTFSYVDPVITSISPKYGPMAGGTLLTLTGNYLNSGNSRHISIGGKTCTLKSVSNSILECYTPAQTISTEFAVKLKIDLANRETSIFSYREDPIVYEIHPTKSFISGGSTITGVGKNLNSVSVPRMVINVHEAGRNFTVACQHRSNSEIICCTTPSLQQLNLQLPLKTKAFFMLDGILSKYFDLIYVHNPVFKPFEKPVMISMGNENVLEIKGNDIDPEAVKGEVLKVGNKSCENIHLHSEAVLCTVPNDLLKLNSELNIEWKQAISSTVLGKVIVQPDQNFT
# Protocol: c-Met ECD-mFc (Example 1) was diluted in PBS (Hyclone, Cat #SH30256.01B) with a final concentration of 2 μg/ml, and then a 96-well ELISA plate (Costar, cat#2592) was coated with c-Met ECD-mFc at room temperature overnight. The plate was washed with PBST (PBS+0.05% tween 20, Simga, Cat#P1379) 3 times on a plate washer (Suppler: BioTex; Model: ELX405; S/N: 251504). 300 μl blocking solution PBS+1% BSA (Roche, Cat #738328) was added to the 96-well plate, and the plate was incubated for 60 minutes at 37° C. After the plate was washed with PBST 3 times, 50 μl of antibody diluted by blocking solution was added to the 96-well plate, and the plate was incubated for 90 minutes at 37° C. […] After the plate was washed with PBST 3 times, 100 μl of horseradish peroxidase (ebioscience, #18-4100-51) diluted with blocking solution was added to the 96-well plate and incubated for 30 minutes. After the plate was washed with PBST 3 times, 100 μl substrate (ebioscience, cat#00-4201-56) was added to the plate and incubated for 10 minutes at room temperature. 100 μl stop solution (2N H₂SO₄) was added, and data was read by a […] microplate reader (Supplier: Moleculer Devices; Model: MNR0643; Equip ID: TMRP001). Data analysis was performed by SoftMax Pro v5.
# [2] = target: T2, Human c-Met ECD His Tag (Human c-Met ECD-his) recombinant protein (human, UniProt P08581 25-932); assay: ELISA, human c-Met-His coated at 2 ug/ml
# T2 construct: extracellular domain; Expressed in 293F cells; also called human c-Met-His; not shown: C-terminal His tag
# T2 sequence (P08581 25-932): as above
# [3] = target: T3, human c-Met expressed on cells (human, UniProt P08581 25-1390); assay: cell-based or functional assay
# T3 sequence (P08581 25-1390): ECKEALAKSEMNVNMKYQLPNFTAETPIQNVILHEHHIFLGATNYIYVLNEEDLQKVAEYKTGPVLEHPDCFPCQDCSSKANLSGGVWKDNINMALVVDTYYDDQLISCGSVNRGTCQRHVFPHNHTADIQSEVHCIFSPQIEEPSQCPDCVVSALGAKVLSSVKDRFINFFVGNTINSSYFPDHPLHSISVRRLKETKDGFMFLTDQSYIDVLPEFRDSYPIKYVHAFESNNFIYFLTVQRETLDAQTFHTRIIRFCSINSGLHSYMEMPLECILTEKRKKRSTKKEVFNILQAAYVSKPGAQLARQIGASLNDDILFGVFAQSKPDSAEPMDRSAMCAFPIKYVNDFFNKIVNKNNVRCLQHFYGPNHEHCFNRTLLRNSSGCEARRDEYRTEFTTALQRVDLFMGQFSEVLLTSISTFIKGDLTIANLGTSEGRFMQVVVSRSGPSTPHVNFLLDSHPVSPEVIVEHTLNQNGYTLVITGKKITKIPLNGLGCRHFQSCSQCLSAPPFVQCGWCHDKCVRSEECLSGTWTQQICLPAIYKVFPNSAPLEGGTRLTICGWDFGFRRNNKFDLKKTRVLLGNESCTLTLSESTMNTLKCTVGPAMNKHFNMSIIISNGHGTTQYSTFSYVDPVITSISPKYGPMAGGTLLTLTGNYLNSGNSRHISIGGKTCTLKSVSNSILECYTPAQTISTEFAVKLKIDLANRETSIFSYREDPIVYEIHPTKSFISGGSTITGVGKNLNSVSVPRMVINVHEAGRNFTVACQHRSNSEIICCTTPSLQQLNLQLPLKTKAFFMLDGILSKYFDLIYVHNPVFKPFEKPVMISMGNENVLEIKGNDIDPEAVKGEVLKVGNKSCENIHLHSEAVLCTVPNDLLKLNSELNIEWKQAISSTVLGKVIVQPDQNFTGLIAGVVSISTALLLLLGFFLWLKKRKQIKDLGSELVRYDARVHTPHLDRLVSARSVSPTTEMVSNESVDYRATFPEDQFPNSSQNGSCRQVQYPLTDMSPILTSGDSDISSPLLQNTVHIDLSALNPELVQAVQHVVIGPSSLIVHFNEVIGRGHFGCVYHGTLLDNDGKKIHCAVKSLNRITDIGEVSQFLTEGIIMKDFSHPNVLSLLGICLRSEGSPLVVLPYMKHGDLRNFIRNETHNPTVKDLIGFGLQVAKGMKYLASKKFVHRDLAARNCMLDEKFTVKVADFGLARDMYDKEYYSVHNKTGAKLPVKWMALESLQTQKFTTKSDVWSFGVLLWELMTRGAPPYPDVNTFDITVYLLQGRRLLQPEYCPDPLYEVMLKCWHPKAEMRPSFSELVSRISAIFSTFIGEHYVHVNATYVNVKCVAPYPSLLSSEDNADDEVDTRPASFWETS
# [4] = target: T4, Human c-Met extracellular Sema region and Flag-His tag (Human c-Met Sema-Flis) (human, UniProt P08581 25-515, limits assumed); assay: SPR (Biacore), antibody captured by anti-human IgG, Sema-His 200-0.78 nM as analyte, 1:1 Langmuir
# T4 construct: domain: extracellular Sema region; Expressed in 293F cells; also called Sema-His; c-Met antigen Sema-His; not shown: C-terminal Flag-His tag
# T4 sequence (P08581 25-515 limits assumed): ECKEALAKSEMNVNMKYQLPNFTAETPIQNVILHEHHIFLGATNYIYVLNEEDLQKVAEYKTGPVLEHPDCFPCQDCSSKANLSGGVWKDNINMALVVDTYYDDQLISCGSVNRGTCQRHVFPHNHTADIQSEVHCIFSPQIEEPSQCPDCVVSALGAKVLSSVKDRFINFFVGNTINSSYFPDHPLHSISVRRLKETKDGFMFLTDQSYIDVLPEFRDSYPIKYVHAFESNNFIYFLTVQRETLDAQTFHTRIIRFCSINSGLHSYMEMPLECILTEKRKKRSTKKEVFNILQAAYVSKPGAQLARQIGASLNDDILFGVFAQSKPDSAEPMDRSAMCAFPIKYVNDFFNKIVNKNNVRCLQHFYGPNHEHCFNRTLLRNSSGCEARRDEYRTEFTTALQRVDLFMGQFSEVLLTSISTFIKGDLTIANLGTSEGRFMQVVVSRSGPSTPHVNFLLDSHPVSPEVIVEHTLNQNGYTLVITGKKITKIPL
# Protocol: Anti-mouse IgG (GE Life Sciences catalog # BR-1008-38) or anti-human IgG (GE Life Sciences catalog # BR-1008-39) antibodies were respectively diluted to 30 μg/ml and 50 μg/ml by sodium acetate solution, pH 5.0 (GE Healthcare, Cat#BR-1003-51). An amino coupling kit (GE Life Sciences, Cat#BR100050) was immobilized onto the test channels and control channels on a CMS chip (GE Life Sciences catalog # BR-1000-12), and the coupling level was set at 15000RU. Running buffer PBS (Hyclone, Cat#SH30256.01B)+0.05% P20 (GE Life Sciences, Cat#BR-1000-54) was used to dilute the c-Met antibody to 1.5 μg/ml. Antigen Sema-His was diluted to 200 nM with running buffer, and then diluted at a 1:2 dilution with the same buffer until it reached 0.78 nM. The diluted antibody passed through the test channel for 1 minute at a speed of 30 μl/min, and the antigen passed through the test channels and control channels for 3 minutes at the same speed. After 10 minutes of dissociation, the flow speed was adjusted to 10 μl/min, and regeneration buffer was passed through test channels and control channels for 3 minutes. Data was fitted by BiaEvaluation 4.1 after double deduction, and the fitting model was a 1:1 Langmuir model.
# [5] = target: T3, human c-Met expressed on cells; assay: cell-based or functional assay; remark: listed apart in the source
# [6] = target: T3, human c-Met expressed on cells; assay: cell-based or functional assay; remark: listed apart in the source
Binder,IC50 [1] [nM],EC50 [2] [nM],"Activity of inhibition of MKN45 cell proliferation, IC50 [3] [nM]",Kd [4] [nM],"Inhibition of proliferation of BxPC3 cells (CCK), IC50 [5] [nM]","Inhibition of proliferation of Caki-1 cells (CCK), IC50 [5] [nM]","Inhibition of proliferation of MKN45 cells (CCK), IC50 [5] [nM]","Inhibition of proliferation of NCI-H596 cells (CCK), IC50 [5] [nM]","Inhibition of proliferation of PC9 cells (CCK), IC50 [5] [nM]","Inhibition of proliferation of SNU5 cells (CCK), IC50 [5] [nM]","IC50 (nM) in MKN45 cell (cytotoxicity, ATP assay) [6] [nM]","Inhibition of proliferation of NCI-H1993 cells (CCK), IC50 [5] [nM]"
B1,1.5,0.39,0.55,8,> 1000,> 1000,0.15,13.7,> 1000,0.1,,
B2,,0.2,,,,,,,,,,
B3,,,,,6.9,6.5,0.17,104,5.6,0.24,0.51,2.8
B4,,,,,,,,,,,0.59,
B5,1.42,0.13,0.52,4,,,,,,,,
